The values that follow come from IntAct's records for PubMed 26258305.

B1: Protein TIFY 7 (Arabidopsis thaliana (Mouse-ear cress)), Q8W4J8 (parent)
chain: MERDFLGLSDKQYLSNNVKHEVNDDAVEERGLSTKAAREWGKSKVFATSSFMPSSDFQEAKAFPGAYQWGSVSAANVFRRCQFGGAFQNATPLLLGGSVPLPTHPSLVPRVASSGSSPQLTIFYGGTISVFNDISPDKAQAIMLCAGNGLKGETGDSKPVREAERMYGKQIHNTAATSSSSATHTDNFSRCRDTPVAATNAMSMIESFNAAPRNMIPSVPQARKASLARFLEKRKERLMSAMPYKKMLLDLSTGESSGMNYSSTSPT
B2: Protein TIFY 7 (Arabidopsis thaliana (Mouse-ear cress)), Q8W4J8 (parent)
chain: B1 chain
partner: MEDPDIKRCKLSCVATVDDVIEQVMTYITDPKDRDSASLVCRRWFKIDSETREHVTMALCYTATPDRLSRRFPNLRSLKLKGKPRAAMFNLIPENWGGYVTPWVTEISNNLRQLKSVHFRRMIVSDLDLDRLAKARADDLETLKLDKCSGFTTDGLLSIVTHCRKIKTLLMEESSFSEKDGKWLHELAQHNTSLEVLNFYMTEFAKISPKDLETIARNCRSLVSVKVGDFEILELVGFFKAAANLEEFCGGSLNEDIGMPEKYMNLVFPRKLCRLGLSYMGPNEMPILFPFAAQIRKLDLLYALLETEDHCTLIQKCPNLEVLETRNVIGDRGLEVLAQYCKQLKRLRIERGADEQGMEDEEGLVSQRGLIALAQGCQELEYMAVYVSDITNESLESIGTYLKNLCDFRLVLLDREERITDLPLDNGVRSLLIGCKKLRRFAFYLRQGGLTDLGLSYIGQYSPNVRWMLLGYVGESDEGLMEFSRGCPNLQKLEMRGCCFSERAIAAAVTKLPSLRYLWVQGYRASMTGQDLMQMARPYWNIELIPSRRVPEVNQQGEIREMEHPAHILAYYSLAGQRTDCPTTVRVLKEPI

The variants in test [1] derive from B1. The settings on record: with myc3_arath MYC3, Q9FIP9.
Sequence of myc3_arath MYC3, Q9FIP9 (Q9FIP9 whole entry): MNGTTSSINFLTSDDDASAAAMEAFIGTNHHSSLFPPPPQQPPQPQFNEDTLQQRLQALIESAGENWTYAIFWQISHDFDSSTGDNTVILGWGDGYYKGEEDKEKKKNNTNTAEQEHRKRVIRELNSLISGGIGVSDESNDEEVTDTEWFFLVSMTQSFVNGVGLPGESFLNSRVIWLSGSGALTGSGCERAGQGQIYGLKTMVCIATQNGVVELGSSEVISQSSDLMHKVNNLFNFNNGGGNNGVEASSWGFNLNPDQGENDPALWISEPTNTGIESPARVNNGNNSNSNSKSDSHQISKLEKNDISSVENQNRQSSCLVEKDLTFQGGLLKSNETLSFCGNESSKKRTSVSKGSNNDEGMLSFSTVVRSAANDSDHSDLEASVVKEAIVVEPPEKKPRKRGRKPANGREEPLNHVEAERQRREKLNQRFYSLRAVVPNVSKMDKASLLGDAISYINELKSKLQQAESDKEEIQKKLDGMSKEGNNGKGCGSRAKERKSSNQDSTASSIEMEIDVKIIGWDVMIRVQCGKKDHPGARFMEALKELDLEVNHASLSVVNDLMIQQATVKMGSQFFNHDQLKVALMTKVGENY
The variants in test [2] derive from B1. Particulars: with myc2_arath MYC2, Q39204.
Sequence of myc2_arath MYC2, Q39204 (Q39204 whole entry): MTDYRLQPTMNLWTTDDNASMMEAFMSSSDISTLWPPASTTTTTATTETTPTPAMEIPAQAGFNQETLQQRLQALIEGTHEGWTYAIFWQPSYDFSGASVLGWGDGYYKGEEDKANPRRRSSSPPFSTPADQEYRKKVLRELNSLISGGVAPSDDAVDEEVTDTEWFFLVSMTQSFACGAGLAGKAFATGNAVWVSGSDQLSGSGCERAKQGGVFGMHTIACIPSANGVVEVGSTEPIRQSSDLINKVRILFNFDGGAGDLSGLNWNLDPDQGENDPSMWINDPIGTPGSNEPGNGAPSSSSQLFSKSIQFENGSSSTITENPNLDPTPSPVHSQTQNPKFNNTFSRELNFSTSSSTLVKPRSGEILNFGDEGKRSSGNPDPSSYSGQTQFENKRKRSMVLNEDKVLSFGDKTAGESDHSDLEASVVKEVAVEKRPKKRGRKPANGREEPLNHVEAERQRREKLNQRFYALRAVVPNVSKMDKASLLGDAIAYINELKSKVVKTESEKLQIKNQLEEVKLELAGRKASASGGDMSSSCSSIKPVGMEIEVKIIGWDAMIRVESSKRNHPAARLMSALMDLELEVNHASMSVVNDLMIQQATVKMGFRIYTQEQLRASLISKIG
Variants of B1 are the subject of test [3]. Particulars: with myc4_arath MYC4, O49687.
Sequence of myc4_arath MYC4, O49687 (O49687 whole entry): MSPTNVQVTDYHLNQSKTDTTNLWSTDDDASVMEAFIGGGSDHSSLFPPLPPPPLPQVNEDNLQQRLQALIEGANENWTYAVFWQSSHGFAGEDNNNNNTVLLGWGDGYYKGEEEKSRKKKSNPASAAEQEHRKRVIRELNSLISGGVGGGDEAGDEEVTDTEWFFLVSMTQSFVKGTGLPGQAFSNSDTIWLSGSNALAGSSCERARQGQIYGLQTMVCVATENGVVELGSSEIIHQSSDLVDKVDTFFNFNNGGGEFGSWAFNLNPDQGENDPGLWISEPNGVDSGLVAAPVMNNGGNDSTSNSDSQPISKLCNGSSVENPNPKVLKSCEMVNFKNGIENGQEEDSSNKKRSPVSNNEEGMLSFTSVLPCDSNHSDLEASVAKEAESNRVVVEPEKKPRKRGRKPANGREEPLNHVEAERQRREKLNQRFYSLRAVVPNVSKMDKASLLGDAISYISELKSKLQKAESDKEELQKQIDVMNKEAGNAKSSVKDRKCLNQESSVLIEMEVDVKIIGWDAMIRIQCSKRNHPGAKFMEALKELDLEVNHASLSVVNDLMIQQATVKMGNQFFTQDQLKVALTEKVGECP
The variants in test [4] derive from B2. The settings on record: with coi1_arath COI1, O04197.

On to MERDFLGLSDKQYLSNNVKHEVNDDAVEERGLSTKAAREWGKSKVFATSSFMPSSDFQEAKAFPGAYQWGSVSAANVFRRCQFGGAFQNATPLLLGGSVPLPTHPSLVPRVASSGSSPQLTIFYGGTISVFNDISPDKAQAIMLCAGNGLKGETGDSKPVREAERMYGKQIHNTAATSSSSATHTDNFSRCRDTPVAATNAMSMIESFNAAPRNMIPSVPQARKASLARALEKRKERLMSAMPYKKMLLDLSTGESSGMNYSSTSPT [F230A], for which the “effect of a mutation on the interaction” value in test [1], in test [2] and in test [3] was “disrupting interaction strength” each time.
With MERDFLGLSDKQYLSNNVKHEVNDDAVEERGLSTKAAREWGKSKVFATSSFMPSSDFQEAKAFPGAYQWGSVSAANVFRRCQFGGAFQNATPLLLGGSVPLPTHPSLVPRVASSGSSPQLTIFYGGTISVFNDISPDKAQAIMLCAGNGLKGETGDSKPVREAERMYGKQIHNTAATSSSSATHTDNFSRCRDTPVAATNAMSMIESFNAAPRNMIPSVPQARKASLARFLEKAKERLMSAMPYKKMLLDLSTGESSGMNYSSTSPT [R234A], the “effect of a mutation on the interaction” value in test [1], in test [2] and in test [3] was “disrupting interaction strength” in each case.
MERDFLGLSDKQYLSNNVKHEVNDDAVEERGLSTKAAREWGKSKVFATSSFMPSSDFQEAKAFPGAYQWGSVSAANVFRRCQFGGAFQNATPLLLGGSVPLPTHPSLVPRVASSGSSPQLTIFYGGTISVFNDISPDKAQAIMLCAGNGLKGETGDSKPVREAERMYGKQIHNTAATSSSSATHTDNFSRCRDTPVAATNAMSMIESFNAAPRNMIPSVPQARKASAARFLEKRKERLMSAMPYKKMLLDLSTGESSGMNYSSTSPT [L227A]: the “effect of a mutation on the interaction” value in test [1], in test [2] and in test [3] was “disrupting interaction strength” in each case.
On to MERDFLGLSDKQYLSNNVKHEVNDDAVEERGLSTKAAREWGKSKVFATSSFMPSSDFQEAKAFPGAYQWGSVSAANVFRRCQFGGAFQNATPLLLGGSVPLPTHPSLVPRVASSGSSPQLTIFYGGTISVFNDISPDKAQAIMLCAGNGLKGETGDSKPVREAERMYGKQIHNTAATSSSSATHTDNFSRCRDTPVAATNAMSMIESFNAAPRNMIPSVPQARKASLARFAEKRKERLMSAMPYKKMLLDLSTGESSGMNYSSTSPT [L231A], for which the figures for the “effect of a mutation on the interaction” value in test [1], in test [2] and in test [3] were “disrupting interaction strength”, “decreasing interaction strength” and “decreasing interaction strength”, respectively.
With MERDFLGLSDKQYLSNNVKHEVNDDAVEERGLSTKAAREWGKSKVFATSSFMPSSDFQEAKAFPGAYQWGSVSAANVFRRCQFGGAFQNATPLLLGGSVPLPTHPSLVPRVASSGSSPQLTIFYGGTISVFNDISPDKAQAIMLCAGNGLKGETGDSKPVREAERMYGKQIHNTAATSSSSATHTDNFSRCRDTPVAATNAMSMIESFNAAPRNMIPSVPQARKASLARFLEKAKERLMSAMPYKKMLLDLSTGESSGMNYSSTSPT [R234A], the “effect of a mutation on the interaction” value in test [4] was “disrupting interaction strength”.
On the same count and under the same terms, the value for MERDFLGLSDKQYLSNNVKHEVNDDAVEERGLSTKAAREWGKSKVFATSSFMPSSDFQEAKAFPGAYQWGSVSAANVFRRCQFGGAFQNATPLLLGGSVPLPTHPSLVPRVASSGSSPQLTIFYGGTISVFNDISPDKAQAIMLCAGNGLKGETGDSKPVREAERMYGKQIHNTAATSSSSATHTDNFSRCRDTPVAATNAMSMIESFNAAPRNMIPSVPQARKASLARFAEKRKERLMSAMPYKKMLLDLSTGESSGMNYSSTSPT [L231A] was “decreasing interaction strength”.
Still for that read-out and setting: the value for MERDFLGLSDKQYLSNNVKHEVNDDAVEERGLSTKAAREWGKSKVFATSSFMPSSDFQEAKAFPGAYQWGSVSAANVFRRCQFGGAFQNATPLLLGGSVPLPTHPSLVPRVASSGSSPQLTIFYGGTISVFNDISPDKAQAIMLCAGNGLKGETGDSKPVREAERMYGKQIHNTAATSSSSATHTDNFSRCRDTPVAATNAMSMIESFNAAPRNMIPSVPQARKASLARALEKRKERLMSAMPYKKMLLDLSTGESSGMNYSSTSPT [F230A] was “disrupting interaction strength”; that for MERDFLGLSDKQYLSNNVKHEVNDDAVEERGLSTKAAREWGKSKVFATSSFMPSSDFQEAKAFPGAYQWGSVSAANVFRRCQFGGAFQNATPLLLGGSVPLPTHPSLVPRVASSGSSPQLTIFYGGTISVFNDISPDKAQAIMLCAGNGLKGETGDSKPVREAERMYGKQIHNTAATSSSSATHTDNFSRCRDTPVAATNAMSMIESFNAAPRNMIPSVPQAAAASLARFLEKRKERLMSAMPYKKMLLDLSTGESSGMNYSSTSPT [R223A;K224A] was “disrupting interaction strength”.
On the same count and under the same terms, the value for MERDFLGLSDKQYLSNNVKHEVNDDAVEERGLSTKAAREWGKSKVFATSSFMPSSDFQEAKAFPGAYQWGSVSAANVFRRCQFGGAFQNATPLLLGGSVPLPTHPSLVPRVASSGSSPQLTIFYGGTISVFNDISPDKAQAIMLCAGNGLKGETGDSKPVREAERMYGKQIHNTAATSSSSATHTDNFSRCRDTPVAATNAMSMIESFNAAPRNMIPAAAAARKASLARFLEKRKERLMSAMPYKKMLLDLSTGESSGMNYSSTSPT [S218A;V219A;P220A;Q221A] was “disrupting interaction strength”.
